The text below walks through data of patent publication US20260070940A1 (Hoffmann-La Roche, published 2026).

To fix the notation:
T1: full-length human CEA with N-terminal SNAP tag on transfected HEK293 cells (human, UniProt P06731 35-685, SNAP tag labelled with terbium)
T1 construct: whole, on cells; also called hu CEA-SNAP; CEACAM5
T1 sequence (looked up): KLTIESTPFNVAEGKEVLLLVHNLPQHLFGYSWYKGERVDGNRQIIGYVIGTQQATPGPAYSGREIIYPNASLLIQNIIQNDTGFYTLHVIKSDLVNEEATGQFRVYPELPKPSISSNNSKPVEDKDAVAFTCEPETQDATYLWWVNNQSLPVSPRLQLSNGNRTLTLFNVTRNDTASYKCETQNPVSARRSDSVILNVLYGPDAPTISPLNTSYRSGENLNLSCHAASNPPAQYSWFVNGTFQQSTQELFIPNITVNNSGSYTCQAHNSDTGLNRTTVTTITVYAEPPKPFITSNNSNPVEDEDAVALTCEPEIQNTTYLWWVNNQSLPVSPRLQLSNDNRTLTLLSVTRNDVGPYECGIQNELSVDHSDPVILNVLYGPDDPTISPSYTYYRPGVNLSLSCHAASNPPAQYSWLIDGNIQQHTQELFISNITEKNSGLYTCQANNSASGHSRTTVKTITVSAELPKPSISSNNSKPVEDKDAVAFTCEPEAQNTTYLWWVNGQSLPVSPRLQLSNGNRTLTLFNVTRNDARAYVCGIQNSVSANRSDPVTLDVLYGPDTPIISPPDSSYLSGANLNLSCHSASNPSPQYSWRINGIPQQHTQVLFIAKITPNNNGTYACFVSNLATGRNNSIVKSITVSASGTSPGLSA

B1: anti-FAP aVH P011.064 (VHH)
VHH: EVQLVESGGGLVQPGGSLRLSCAASGFNIKDTCIGWVRRAPGKEEELVANICITDGKTRYADSVKGRFTISADTSKNTAYLQMNSLRAEDTAVYYCAYYSKYIGYRYWGQGTTVTVSS
B2: anti-FAP aVH P011.080 (VHH)
VHH: EVQLVESGGGLVQPGGSLRLSCAASGFNIKDTCIGWVRRAPGKEEELVANICQSGGYTRYADSVKGRFTISADTSKNTAYLQMNSLRAEDTAVYYCARYHKGVGYQYWGQGTTVTVSS
B3: anti-FAP aVH P014.087 (VHH)
VHH: EVQLVESGGGLVQPGGSLRLSCAASGFNIKDTCIGWVRRAPGKEEELVANICGHIGSTRYADSVKGRFTISADTSKNTAYLQMNSLRAEDTAVYYCANSYTYSYKYWGQGTTVTVSS
B4: anti-FAP aVH P012.090 (VHH)
VHH: EVQLVESGGGLVQPGGSLRLSCAASSFNIKDTYIGWVRRAPGKEEELVAKIFRCSDGRTRYADSVKGRFTISCDTSKNTAYLQMNSLRAEDTAVYYCANIYKTHYTYWGQGTTVTVSS
B5: anti-CD28 aVH P020.057 (VHH)
VHH: EVQLVESGGGLVQPGGSLRLSCAASGFNIKDTCIGWVRRAPGKEEELVAAICYTQGDTRYADSVKGRFTISADTSKNTAYLQMNSLRAEDTAVYYCAASQYDSYYTYWGQGTTVTVSS
B6: anti-CD28 aVH P020.023 (VHH)
VHH: EVQLVESGGGLVQPGGSLRLSCAASGFNIKDTCIGWARRAPGKEEELVAAICDYNGHTRYADSVKGRFTISADTSKNTAYLQMNSLRAEDTAVYYCAQSDYDSKYSYWGQGTTVTVSS
B7: anti-CD28 aVH P020.034 (VHH)
VHH: EVQLVESGGGLVQPGGSLRLSCAASGFNIKDTCIGWVRRAPGKEEELVAAICHHGGDTRYADSVKGRFTISADTSKNTAYLQMNSLRAEDTAVYYCAESQVDSYYSYWGQGTTVTVSS
B8: anti-CD28 aVH P020.063 (VHH)
VHH: EVQLVESGGGLVQPGGSLRLSCAASGFNIKDTCIGWVRRAPGKEEELVAAICPEYGDTRYADSVKGRFTISADTSKNTAYLQMNSLRAEDTAVYYCASSDYDSAYSYWGQGTTVTVSS
B9: anti-CD28 aVH P020.051 (VHH)
VHH: EVQLVESGGGLVQPGGSLRLSCAASGFNIKDTCIGWVRRAPGKEEELVAAICKTQGDTRYADSVKGRFTISADTSKNTAYLQMNSLRAEDTAVYYCAAANYDSPYTYWGQGTTVTVSS
B10: anti-CD28 aVH P020.065 (VHH)
VHH: EVQLVESGGGLVQPGGSLRLSCAASGFNIKDTCIGWVRRAPGKEEELVAGICYTYGDTRYADSVKGRFTISADTSKNTAYLQMNSLRAEDTAVYYCASSEVDSYYSYWGQGTTVTVSS
B11: anti-CD28 aVH P020.017 (VHH)
VHH: EVQLVESGGGLVQPGGSLRLSCAASGFNIKDTCIGWVRRAPGKEEELVAAICPDEGDTRYADSVKGRFTISADTSKNTAYLQMNSLRAEDTAVYYCAAAKYDDRYNYWGQGTTVTVSS
B12: anti-CD28 aVH P020.042 (VHH)
VHH: EVQLVESGGGLVQPGGSLRLSCAASGFNIKDTCIGWVRRAPGKEEELVAAICREAGDTRYADSVKGRFTISADTSKNTAYLQMNSLRAEDTAVYYCAAADYDSTYIYWGQGTTVTVSS
B13: anti-CD28 aVH P020.029 (VHH)
VHH: EVQLVESGGGLVQPGGSLRLSCAASGFNIKDTCIGWVRRAPGKEEELVAGICEAGGDTRYADSVKGRFTISADTSKNTAYLQMNSLRAEDTAVYYCAESQQGSYYSYWGQGTTVTVSS
B14: anti-CD28 aVH P020.027 (VHH)
VHH: EVQLVESGGGLVQPGGSLRLSCAASGFNIKDTCIGWVRRAPGKEEELVAGICRDGGDTRYADSVKGRFTISADTSKNTAYLQMNSLRAEDTAVYYCAASDYDSYYAYWGQGTTVTVSS
B15: anti-CD28 aVH P020.037 (VHH)
VHH: EVQLVESGGGLVQPGGSLRLSCAASGFNIKDTCIGWVRRAPGKEEELVAAICDSGGDTRYADSVKGRFTISADTSKNTAYLQMNSLRAEDTAVYYCAASDYNSHYSYWGQGTTVTVSS
B16: anti-CD28 aVH P020.077 (VHH)
VHH: EVQLVESGGGLVQPGGSLRLSCAASGFNIKDTCIGWVRRAPGKEEELVAGICQHYGDTRYADSVKGRFTISADTSKNTAYLQMNSLRAEDTAVYYCATDDWIYPGYIYWGQGTTVTVSS
B17: anti-CD28 aVH P020.010 (VHH)
VHH: EVQLVESGGGLVQPGGSLRLSCAASGFNIKDTCIGWVRRAPGKEEELVAYICEGNGYTRYADSVKGRFTISADTSKNTAYLQMNSLRAEDTAVYYCAAEGKETYYYQYWGQGTTVTVSS
B18: anti-CD28 aVH P023.001 (VHH)
VHH: EVQLVESGGGLVQPGGSLRLSCAASGFNIKDTCIGWVRRAPGKEEELVAYICPSHGYTRYADSVKGRFTISADTSKNTAYLQMNSLRAEDTAVYYCADHKNTQWGYAYWGQGTTVTVSS
B19: anti-CD28 aVH P023.039 (VHH)
VHH: EVQLVESGGGLVQPGGSLRLSCAASGFNIKDTCIGWVRRAPGKEEELVADICIKHGYTRYADSVKGRFTISADTSKNTAYLQMNSLRAEDTAVYYCADWTQSGYHYGYWGQGTTVTVSS
B20: anti-CD28 aVH P023.017 (VHH)
VHH: EVQLVESGGGLVQPGGSLRLSCAASGFNIKDTCIGWVRRAPGKEEELVARICGEYGSTRYADSVKGRFTISADTSKNTAYLQMNSLRAEDTAVYYCAAQPRYYDVYDYWGQGTTVTVSS
B21: anti-CD28 aVH P023.057 (VHH)
VHH: EVQLVESGGGLVQPGGSLRLSCAASGFNIKDTCIGWVRRAPGKEEELVAEICGRYGSTRYADSVKGRFTISADTSKNTAYLQMNSLRAEDTAVYYCAAEHRYPGQYTYWGQGTTVTVSS
B22: anti-CD28 aVH P020.035 (VHH)
VHH: EVQLVESGGGLVQPGGSLRLSCAASGFNIKDTCIGWVRRAPGKEEELVADICGDDGHTRYADSVKGRFTISADTSKNTAYLQMNSLRAEDTAVYYCAYYSGSYYEYWGQGTTVTVSS
B23: anti-CD28 aVH P019.020 (VHH)
VHH: EVQLVESGGGLVQPGGSLRLSCAASGFNIKDSSTYIGWVRRAPGKEEELVAYIYCTQGETRYADSVKGRFTISCDTSKNTAYLQMNSLRAEDTAVYYCASWGGNYPYYYWGQGTTVTVSS
B24: anti-CEA aVH P118.061 (VHH)
VHH: EVQLVESGGGLVQPGGSLRLSCAASGFNIKDTCIGWVRRAPGKEEELVANICPYHGYTRYADSVKGRFTISADTSKNTAYLQMNSLRAEDTAVYYCAIVSYVDEYYNYWGQGTTVTVSS
B25: anti-CEA aVH P127.002 (VHH)
VHH: EVQLVESGGGLVQPGGSLRLSCAASGFNIKDTCIGWVRRAPGKEEELVASICKYTGKTRYADSVKGRFTISADTSKNTAYLQMNSLRAEDTAVYYCAIVASGDGWYNYWGQGTTVTVSS
B26: anti-CEA aVH P124.034 (VHH)
VHH: EVQLVESGGGLVQPGGSLRLSCAASGFNIKDTCIGWVRRAPGKEEELVAAICPYIGETRYADSVKGRFTISADTSKNTAYLQMNSLRAEDTAVYYCATVARKYNQYNYWGQGTTVTVSS
B27: anti-CEA aVH P124.021 (VHH)
VHH: EVQLVESGGGLVQPGGSLRLSCAASGFNIKDTCIGWVRRAPGKEEELVAAICPYKGYTRYADSVKGRFTISADTSKNTAYLQMNSLRAEDTAVYYCANVAYSGGHYNYWGQGTTVTVSS
B28: anti-CEA aVH P127.014 (VHH)
VHH: EVQLVESGGGLVQPGGSLRLSCAASGFNIKDTCIGWVRRAPGKEEELVAAICTYKGTTRYADSVKGRFTISADTSKNTAYLQMNSLRAEDTAVYYCAIYSHYYDYYNYWGQGTTVTVSS
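For result in this document: SPR at 25 °C with biotinylated human or murine FAP captured via neutravidin, aVH-containing bacterial supernatants diluted 1:3 as analyte, 600 s dissociation, blank supernatant without aVH as reference.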

The first test deals with T2, murine FAP avi his, biotinylated (murine, UniProt P97321 27-761, biotin on the avi-tag).
T2 construct: also called muFAP; mu FAP
The experiment in a line: SPR, bacterial supernatant.
On to B1, for which the binding result is on record as “no binding”. Still for that read-out and setting: next, B2: “no binding”.

Turning to B3, the binding result is given as “no binding”. The same measure, in the same setting: next, B4: “no binding”.

Another test deals with T3, hu CD28-Fc (Fc-knob-avi and Fc-hole chains), biotinylated (human, biotin on the avi tag).
T3 construct: also called CD28-Fc-avi
The experiment in a line: SPR, bacterial supernatant.
Regarding B5, the koff was 0.0174 s⁻¹. B6 yielded a koff of 0.0033 s⁻¹. As for B7, the koff is 0.00216 s⁻¹. Regarding B8, the koff worked out at 0.018 s⁻¹. Still for that read-out and setting: the same measure for B9: 0.0135 s⁻¹; for B10: 0.00885 s⁻¹; for B11: 0.0109 s⁻¹.

Molecule B12 registered a koff of 0.0144 s⁻¹.

In turn, B13 returned a koff of 0.00151 s⁻¹. Compared with the last molecule, the koff is about 9.5-fold lower. The same measure, in the same setting: the same measure for B14: 0.00145 s⁻¹; for B15: 0.0131 s⁻¹; for B16: 0.0117 s⁻¹.

Molecule B17 gave a koff of 0.00068 s⁻¹. Against the preceding molecule, the koff is about 17-fold lower. B18 had a koff of 0.0321 s⁻¹. As to B19, the koff came to 0.0176 s⁻¹. The same measure, in the same setting: next, B20: 0.0175 s⁻¹; B21: 0.0777 s⁻¹; B22: 0.00134 s⁻¹.

The molecule B23 displayed a koff of 0.0206 s⁻¹.

In a further test the target is T1, full-length human CEA with N-terminal …. The test is described as follows: FRET (TagLite) on hu CEA-SNAP cells.
As for B24, the affinity, expressed as Kd, was 14.7 nM. This lies in the double-digit nanomolar range.

Regarding B25, the Kd was 399 nM.

Consider B26, for which the Kd is 65.4 nM. For the molecule B27, the Kd came to 12.3 nM. Molecule B28 gave a Kd of 9.1 nM.
